Experiments:
[1] = target: cytoplasmic dynein 74-kD intermediate chain (mouse (endogenous in J774)) (UniProt O88487); assay: co-IP
[2] = target: actin-related protein Arp1 of the dynactin complex (mouse (endogenous in J774)) (UniProt P61164); assay: co-IP
Sequence of UniProt P61164 (P61164 whole entry, one chain of several): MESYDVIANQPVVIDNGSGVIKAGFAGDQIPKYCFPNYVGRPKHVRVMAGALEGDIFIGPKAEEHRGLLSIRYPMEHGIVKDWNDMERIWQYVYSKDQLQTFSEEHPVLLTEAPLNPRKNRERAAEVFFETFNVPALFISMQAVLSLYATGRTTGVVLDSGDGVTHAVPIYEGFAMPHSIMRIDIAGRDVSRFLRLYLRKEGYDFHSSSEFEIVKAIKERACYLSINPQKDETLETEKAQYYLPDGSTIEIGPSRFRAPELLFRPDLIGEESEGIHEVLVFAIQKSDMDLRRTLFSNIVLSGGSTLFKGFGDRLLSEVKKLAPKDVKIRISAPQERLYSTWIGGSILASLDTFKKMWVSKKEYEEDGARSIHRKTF

Sequence of UniProt O88487 (O88487 whole entry): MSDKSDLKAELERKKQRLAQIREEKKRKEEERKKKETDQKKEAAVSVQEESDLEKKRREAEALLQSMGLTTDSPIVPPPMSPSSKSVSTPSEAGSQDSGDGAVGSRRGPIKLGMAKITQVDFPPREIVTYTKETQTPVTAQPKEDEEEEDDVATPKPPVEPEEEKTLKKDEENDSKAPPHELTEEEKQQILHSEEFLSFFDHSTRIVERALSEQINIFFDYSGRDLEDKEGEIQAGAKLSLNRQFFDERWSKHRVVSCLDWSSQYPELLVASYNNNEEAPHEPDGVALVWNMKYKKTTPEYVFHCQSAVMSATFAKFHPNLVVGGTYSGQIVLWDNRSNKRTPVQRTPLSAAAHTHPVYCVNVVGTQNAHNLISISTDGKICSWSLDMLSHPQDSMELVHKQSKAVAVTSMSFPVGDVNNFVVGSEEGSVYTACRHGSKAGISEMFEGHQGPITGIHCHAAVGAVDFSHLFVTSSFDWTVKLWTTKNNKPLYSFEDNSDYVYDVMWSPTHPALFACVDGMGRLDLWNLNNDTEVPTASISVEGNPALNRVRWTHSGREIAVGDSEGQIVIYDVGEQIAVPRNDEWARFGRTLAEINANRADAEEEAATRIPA

Substance | percent removed from cytosol by immunodepletion of the bait [1] | percent removed from cytosol by immunodepletion of the bait [2]
cytoplasmic dynein heavy chain (from UniProt Q9JHU4 1-4644) (natural protein) | 80% | 
dynactin subunit p150^Glued (from UniProt O08788 1-1281) (natural protein) |  | 95%
